{"source": "patent US11702469B2", "about": "“Recombinant EGFL7, EGFL7 antibodies, and uses thereof” (Ohio State Innovation Foundation, priority 2017, dated 2023)", "molecules": {"B1": {"name": "Parsatuzumab: Anti-human EGFL7 therapeutic antibody (Parsatuzumab) obtained from Creative Biolabs; blocking monoclonal antibody (antibody, chains of the INN, looked up, V domains shown)", "VH": "EVQLVESGGGLVQPGGSLRLSCAASGYTFIDYYMNWVRQAPGKGLEWVGDINLDNSGTHYNQKFKGRFTISRDKSKNTAYLQMNSLRAEDTAVYYCAREGVYHDYDDYAMDYWGQGTLVTVSS", "VL": "DIQMTQSPSSLSASVGDRVTITCRTSQSLVHINAITYLHWYQQKPGKAPKLLIYRVSNRFSGVPSRFSGSGSGTDFTLTISSLQPEDFATYYCGQSTHVPLTFGQGTKVEIK"}}, "key": {"AML cell lines [1]": {"system": "AML cell lines", "assay": "Apoptosis (AnnexinV/7AAD) in AML cell lines", "format": "cell-based, human", "details": "50 μg/ml, forty-eight hours, vs IgG control", "method": "FIG. 9. […] Forty-eight hours after IgG control vs. @E7 antibody treatment (50 μg/ml) of AML cell lines apoptosis was evaluated by AnnexinV/7AAD staining. * indicates P<0.05, ** indicates P<0.01.\n(§1) For the evaluation of apoptosis, cells were stained with Annexin V and 7-AAD as previously described^16, 21 For the evaluation of cell proliferation, AML cell lines were incubated with BrdU, fixed, permeabilized and stained with APC-conjugated anti-BrdU antibody, according to the instructions of the manufacturer (BD Biosciences) and as previously described^16, 21 The proliferating fraction of the cells (i.e., the BrdU positive cells) was evaluated with flow cytometry (LSRII, BD Biosciences). For cell differentiation analysis, cells were stained with an anti-CD11B antibody (BD Biosciences) and analyzed by flow cytometry."}, "AML cell lines [2]": {"system": "AML cell lines", "assay": "Differentiation (CD11b expression) in AML cell lines", "format": "cell-based, human", "details": "vs IgG-treated controls", "method": "FIG. 10. Induced differentiation in AML cell lines treated with anti-EGFL7. Differentiation analysis was evaluated by CD11b expression. CD11b is depicted as the ratio of the CD11b expression value in the @E7 treated samples to CD11b expression value of the IgG-treated controls. * indicates P<0.05, ** indicates P<0.01.\nas §1"}, "CD34+CB cells": {"system": "CD34+CB cells", "assay": "CFU assay, CD34+ cord blood cells", "format": "cell-based", "details": "treated in vitro, vs IgG1 control", "method": "FIG. 12. Recombinant EGFL7 stimulation leads to expansion of primary CFUs and secondary CFUs in human hematopoietic stem and progenitor cells (HSPCs). […] The number of colonies with more than 50 cells was counted under a light microscope. Right: Cells from the first round of CFU assays were harvested, rinsed with SFEM, and pooled. 5000 cells were then mixed with methylcellulose medium in the absence or presence of 0.25 μM recombinant human EGFL7 and plated onto 2 cm dishes for 10 days. The number of colonies with more than 50 cells was counted under a light microscope. […]\n[…] After 10 days of culture, colonies were scored.\nTo assess the toxicity of Parsatuzumab on normal hematopoiesis, wild type (C57Bl/6J) mice were treated with Parsatuzumab (n=4) and IgG1 control (n=4) with the highest dose previously tested at 50 mpk twice a week for two weeks. Parsatuzumab targets both human and mouse EGFL7 protein. After two weeks of treatment, blood, spleen and BM were harvested and full phenotypic characterization was performed to assess toxicity. […] Full immunophenotypic examination of BM populations was also performed (data not shown due to space constraints). […] To functionally test the effect of Parsatuzumab on normal HSPCs, competitive repopulation BM transplantation (BMT) assays and CFU assays were performed. […]"}, "THP-1 cells": {"system": "THP-1 cells", "assay": "Differentiation (CD11B and CD14 staining), THP-1", "format": "cell-based, human", "details": "96-hours post anti-EGFL7 treatment", "method": "FIG. 24A-24G. EGFL7 prevents activation of NOTCH signaling in AML cells. (FIG. 24A) Overview of experiments using DLL4-FC and IgG-FC control coated plates to induce NOTCH activation. (FIG. 24B) THP-1 cells were pre-treated with 10 μM γ-secretase inhibitor (AVA), 100 μg/ml anti-EGFL7 antibody or 0.25 μM rEGFL7 for 30 min, then transferred to IgG-Fc or DLL4-Fc coated plates. After 4 h of incubation total RNA from THP-1 cells was extracted for qRT-PCR analysis of HES1 with β-ACTIN as internal control. ^###P<0.001 DLL4-FC vs IgG-FC; ***P<0.001 DLL4+AVA, DLL4+rEGFL7, and DLL4+anti-EGFL7 vs DLL4-FC. […] THP-1 cells were treated with the indicated concentration of anti-EGFL7 (@E7) then assessed for apoptosis using (FIG. 24D) AnnexinV+ staining and FACS; *P<0.05 (FIG. 24E) Immuno-blotting for PARP1 and Casp3 cleavage. (FIG. 24F) Cell differentiation was assessed by CD11B and CD14 staining 96-hours post anti-EGFL7 treatments; *P<0.05. (FIG. 24G) To determine whether activation of NOTCH by DLL4-Fc could be accentuated by anti-EGFL7 treatment, THP-1 cells were first treated with anti-EGFL7 (100 μg/ml) and then cultured on DLL4-FC or IgG-Fc coated plates and then assessed for apoptosis using AnnexinV+ staining and FACS. *P<0.05 DLL4-Fc and anti-EGFL7; vs DLL4-FC+anti-EGFL7. […]"}}}
{"molecule": "B1", "values": [{"measurement": "apoptosis (AnnexinV/7AAD)", "setting": "AML cell lines [1]", "result": "increased apoptosis"}, {"measurement": "differentiation (CD11b expression)", "setting": "AML cell lines [2]", "result": "increased differentiation"}, {"measurement": "numbers and types of colonies, CB CD34+ cells", "setting": "CD34+CB cells", "result": "no significant changes in the numbers or types of colonies"}, {"measurement": "CD11B and CD14 expression", "setting": "THP-1 cells", "result": "increases were found in both these markers"}]}
